Laboratory results taken from article PMC3632608.

Key:
[1] = molecular target: A53T mutant α-synuclein (human) (UniProt P37840)
[2] = molecular target: Recombinant human α-synuclein (human) (UniProt P37840)
[3] = molecular target: A30P mutant α-synuclein (human) (UniProt P37840)
[4] = molecular target: Recombinant human β-synuclein (human) (UniProt Q16143); test: SEC; Superose 12, 50 mM Tris/HCl pH 7.4, 100 mM NaCl, 1 mM EDTA, 5% glycerol, 0.5 ml/min; 20-50 µg per run; in vitro aged α-synuclein, β-synuclein or co-incubated mixtures; mass estimated from gel filtration standards

Substance: Recombinant human β-synuclein (from UniProt Q16143 1-134) (natural protein)
- reduction of isoaspartate formed in A53T α-synuclein on co-incubation with approximately equimolar β-synuclein, 0-20 days of in vitro ageing (methanol diffusion assay); value after 20 days [1]: 47.9%
- reduction of isoaspartate formed in native α-synuclein on co-incubation with approximately equimolar β-synuclein, 0-20 days of in vitro ageing (methanol diffusion assay); value after 20 days [2]: 72.2%
- reduction of isoaspartate formed in A30P α-synuclein on co-incubation with approximately equimolar β-synuclein, 0-20 days of in vitro ageing (methanol diffusion assay); value after 20 days [3]: 84.3%
- stoichiometry N [4]: 4
